According to the supplement of paper PMC9170038:

System: MS2 coat protein
Assay: apparent KD of MS2 coat protein; designed switch direction (-1 OFF switch, 1 ON switch): 1; higher = weaker reporter binding
Method in brief: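 RNA switches sharing common flanks were transcribed by stalled E. coli RNA polymerase on Illumina chips. A doubling series of SNAP-549-labelled MS2 coat protein, from 0.7 or 1.5 nM to 3 µM, was applied in Tris-HCl pH 7.5 buffer with KCl, MgCl2, BSA, DTT, tRNA and Tween-20. Each step lasted 0.8–1.5 h at the bottom of the series and 10–20 min at the top. Normalised cluster fluorescence was curve-fitted, giving apparent KD as the per-design median over clusters.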

[1] = Eterna round: R95, input ligand: FMN 200 uM
[2] = Eterna round: R95, input ligand: microRNA oligo, concentration not stated
[3] = Eterna round: R95, input ligand: none
[4] = input ligand: microRNA oligo, concentration not stated

Row | Sequence | apparent KD of MS2 coat protein [1] [nM] | apparent KD of MS2 coat protein [2] [nM] | apparent KD of MS2 coat protein [3] [nM] | apparent KD of MS2 coat protein (input ligand: FMN 200 uM) [nM] | apparent KD of MS2 coat protein [4] [nM] | apparent KD of MS2 coat protein (input ligand: none) [nM]
1 | CGGCUUGUACAUGAGGAUCACCCAUGUAUGUACAAGUUUUUGCUCGUCUUAUAAAUACGAUCUACCGAAAGGUAGAU [BIOPHYS241_ElaineNg_1] (puzzle: Sensor for hsa-mir-208a version 2) | 276 | 18.7 | 236 | – | – | –
2 | CGGGAGAUCGUAGGAUAUCUAGGAUAUGAACGAGGAUCACCCGAGCAGCAUCAGCGCAUCAGAGGAGAGAAGGACGAUCAUGCG [pwkr ssNG2 2F5 2FMN.6] (Eterna round: R96, puzzle: Same State NG 2) | – | – | – | 751 | 31.7 | 741
3 | CGGGUACAUGAGGAUCACCCAUGUGGGAGGGAUGCAGGAUAUGUGGGAAAAGGGUAUGUAACAGAAGGGCAAGGAG [JR_SS!_Sub014] (puzzle: Same State 1) | 30.8 | 31.8 | 45.1 | – | – | –
4 | CGUAGGUAGCUGGAGGAUAUUCGAGUGGUAACAUGAGGAUCACCCAUGUGGAGAGAGGUACAUGAGGAGAAGGCUAGCUGCCUGC [JL-ss2-3.14 JL mod] (puzzle: Same State 2) | 13.4 | 22 | 27.1 | – | – | –
5 | CGUAGGUGGCUGGAGGAUAUUCGAGUGGUAACAUGAGGAUCACCCAUGUGUCGCGCGGUACAUGAGGAGAAGGCUAGCGGCCUGC (puzzle: Same State 2) | 20.8 | 118 | 250 | – | – | –
6 | CGUCCAGCCUGAGCUGGACAAAAGCAUGUACAUGAGGAUCACCCAUGUUCAUGUACAAGCUUUUUGCUCGUCUUAUC [salish99_208a_r3_055] (puzzle: Sensor for hsa-mir-208a) | 597 | 14.4 | 587 | – | – | –
7 | CGUCCGGCCUGAGCUGGACGGAAGCUUGUACAUGAGGAUCACCCAUGUUCAUGUGCAGGCUUUUUGCUCGUCUUGUG [salish99_mir208a_modof_jandersonlee] (puzzle: Sensor for hsa-mir-208a) | 19.8 | 18.8 | 23.4 | – | – | –
8 | CGUCCGGCCUGUGCUGGCCGGAUGCAUGUACAUGAGGAUCACCCAUGUUCAUGUGCAGGCUUUUUGCUCGUCUUGUG [salish99_mir208a_r3_008] (puzzle: Sensor for hsa-mir-208a) | 19.2 | 11.9 | 23.1 | – | – | –
9 | CGUCGCUGUCGAGAGGAUAUGCGGUGAUGGACAUGAGGAUCACCCAUGUUAGCGAUAGCAUCGCGGCAGAAGGCUCUUACGACUG [Soteed Omei mod 28] (puzzle: Same State 2) | 18.6 | 19.8 | 23.7 | – | – | –
10 | CGUCGUUUGAUAGGAUAUCGCUUUGCAUGAGGAUCACCCAUGUUUACCACGCUGGUUUUUCUUUCCGAGAAGGAUUCUGAUGUU [salish99_SSNG02_r04_024] (Eterna round: R96, puzzle: Same State NG 2) | – | – | – | 42 | 29.2 | 39.6
11 | CGUCGUUUGGUAGGAUAUCGCUAUACAUGAGGAUCACCCAUGUUUACCACGCUGGUUUUUCAUACCGAGAAGGAUUCUGAUGUU [salish99_SSNG02_r04_017] (Eterna round: R96, puzzle: Same State NG 2) | – | – | – | 16 | 14.9 | 19.8
12 | CGUUCAUACUCAGGACGGAGAGUAGAGGAACAUGAGGAUCACCCAUGUAUGAGCUUUUUGCUCGUCAUUAACAGUAG [JR_SHM208a_Sub012] (puzzle: Sensor for hsa-mir-208a) | 61.8 | 43.4 | 81.2 | – | – | –
13 | CUACUACAUGAGGAUCACCCAUGUUAUAGUGAUGCAGGAUAUGUGUGACCAGAAGAUGAAACAGAAGGGCAAAGAA [JR_SS!_Sub001] (puzzle: Same State 1) | 31.4 | 33.1 | 30.1 | – | – | –
14 | CUACUACAUGAGGAUCACCCAUGUUGUAGUGAUGCAGGAUAUGUGUGACCAGAAGAUGAAACAGAAGGGCAAAGAA [JR_SS!_Sub002] (puzzle: Same State 1) | 13.5 | 15.9 | 15.2 | – | – | –
15 | CUCAAACAUGAGGAUCACCCAUGUGUUGUCAUGGGAGGAUAUCUAAGUUCAUUGUAUUCGGGAGAAGGCCUAUGUC [× ×•×ª×• ×ž×“×™× ×” × ×—×ª-09] (puzzle: Same State 1) | – | 362 | – | – | – | –
16 | CUGACAUGUCAAGGAUAUCACGUCGAUUAGACGUGAGAAGGUGAUCUACACAUGAGGAUCACCCAUGUGUUACGUGGGAGUCAG [Brourd's SSNG1/1-A2 mod 19] (Eterna round: R96, puzzle: Same State NG 1) | – | – | – | 54.9 | 113 | 162

Row | Sequence | apparent KD of MS2 coat protein [1] [nM] | apparent KD of MS2 coat protein [2] [nM] | apparent KD of MS2 coat protein [3] [nM] | apparent KD of MS2 coat protein (input ligand: FMN 200 uM) [nM] | apparent KD of MS2 coat protein [4] [nM] | apparent KD of MS2 coat protein (input ligand: none) [nM]
17 | CUGAGCAAUCGAGGAUAUCACGUCGUUUAGACGUGAGAAGGCGAUCAUAACAUGAGGAUCACCCAUGUAUUACAUGAAGCUCAG [SSNG1/4-A3] (Eterna round: R96, puzzle: Same State NG 1) | – | – | – | 13.6 | 10.1 | 13.3
18 | CUGAGCGAUCUAGGAUAUCACGUCGAUUAGACGUGAGAAGGAGAUCAUAACAUGAGGAUCACCCAUGUAUUACAUGAAGCUCAG [SSNG1/6-A2] (Eterna round: R96, puzzle: Same State NG 1) | – | – | – | 17.6 | 9.15 | 19.6
19 | CUUUAUCACUAUACAUGAGGAUCACCCAUGUUAUCAUCAUGAGAGGAUAUCGUAUUUGGAUUUUUCGAGAAGGCUCUUUUGUAU [JR_SSNG3_Sub076] (Eterna round: R96, puzzle: Same State NG 3) | – | – | – | – | 90.4 | –
20 | CUUUUUAAUGCAGGAUAUGAUCAACAUGAGGAUCACCCAUGUGGUGUUGUGAGUAAGGAGAGUGAUCAGAAGGGCAUCUUUUCA [SS-NG2-LRO04] (Eterna round: R96, puzzle: Same State NG 2) | – | – | – | 737 | 415 | 435
21 | CUUUUUAGUGCAGGAUAUGAUCAACAUGAGGAUCACCCAUGUGGCGUUGUGAGUAGGGAGAGUGAUCAGAAGGGCGUCUCCUCG [SS-NG2-LRO10] (Eterna round: R96, puzzle: Same State NG 2) | – | – | – | 40.7 | 55.7 | 39.2
22 | GAAAAACAUGAGGAUCACCCAUGUGUAAACAAGGGAGGAUAUACAAAGACGUAAGUCAAAGUAGAAGGCCUAAAAG [Garnet 38] (Eterna round: R96, puzzle: Same State 1) | – | – | – | 19.6 | 54.3 | 71.8
23 | GAAAAGGCGACGCAGGAUAUGAAAGGUGAAACAUGAGGAUCACCCAUGUGCUACCUUCCGAUAAAUCAGAAGGGCGACGCCUAGA [Azaanre] (puzzle: Same State 2) | 11.4 | 9.79 | 11.3 | – | – | –
24 | GAAUAAGUUUACGAGGAUAUGUUCCGCAUAACAUGAGGAUCACCCAUGUGAACAAGAAAGGCGACGCAGAAGGCGUGAGCAGAAG [Mat - Same State 2 - Mod of UCT - D100] (puzzle: Same State 2) | 23 | 11.4 | 117 | – | – | –
25 | GAAUAGUUGAGAGGAUAUCUAUGAUAAAAGGAUAGAGAAGGUUUUAACAUGAGGAUCACCCAUGUAGGACUAUAUAUGUGAAUA [Parity 82 - Jieux - Same State NG 1] (Eterna round: R96, puzzle: Same State NG 1) | – | – | – | 12.5 | 11.9 | 16.9
26 | GAAUAGUUGAGAGGAUAUCUAUUAUAAAAGGAUAGAGAAGGUUUUAACAUGAGGAUCACCCAUGUAGGACUAUAUAUGUGAAUA [Parity 100 - Jieux - Same State NG 1] (Eterna round: R96, puzzle: Same State NG 1) | – | – | – | 16.2 | 13.6 | 16.1
27 | GACCGCGAGGAAGGAUAUGGAGCCUAAUAGGCUCCAGAAGGUCCAUAAAGGACAUGAGGAUCACCCAUGUGGGCUGAAGCGGUC [Mat - Same State NG 1 - JL mod - D74] (Eterna round: R96, puzzle: Same State NG 1) | – | – | – | 18.3 | 21.4 | 34.7
28 | GACUAUCUAUCUCAGGAUAUCAUGUCAAAGACAUGAGGAUCACCCAUGUACCAGGAAACUGGUUAUGAGAAGGGAGAUAGAUAGA [Mat - Same State 2 - Mod - D44] (puzzle: Same State 2) | 130 | 58.1 | 991 | – | – | –
29 | GAGAGAGGGCGAGGAUAUUCGGUGAUAAUGAUGGAAGAAGGCGCAGACAUGAGGAUCACCCAUGUGGGAAUAAUCCAGAGAGAG [Parity 14 - Jieux - Same State NG 1] (Eterna round: R96, puzzle: Same State NG 1) | – | – | – | 206 | 101 | 131
30 | GAGAGAGGGUGAGGAUAUUUAGUGAUAAUGAUAAAAGAAGGCACAGACAUGAGGAUCACCCAUGUGGGAAUAAUCCAGAGAGAG [Parity 4 - Jieux - Same State NG 1] (Eterna round: R96, puzzle: Same State NG 1) | – | – | – | – | 238 | –
31 | GAGAGGAUAUGGAGAGGAUCACCCUCUAGAAGGCUCGAAGGAGAGGAUAUGGAGAGGAUCACCCUCUAGAAGGCUCACUUCUCU [pwkr ssNG3 DX 2xF5 +2xFMN.6] (Eterna round: R96, puzzle: Same State NG 3) | – | – | – | 256 | 105 | 156
